Measured values taken from patent WO2010064089A1 (dated 2010).

Target: human c-Met receptor on tumor cells (A549, NCI-H441, BxPC3) (human, UniProt P08581 25-1390)
Test: cell-based or functional assay

| Binder | inhibition of HGF-induced proliferation of NCI-H441 cells (Figure 14A) | inhibition of HGF-induced proliferation of NCI-H441 cells (Figure 14B) | inhibition of HGF-induced proliferation of NCI-H441 cells (Figure 15) |
| --- | --- | --- | --- |
| murine 224G11 Mab (antibody, mouse IgG1, V domains shown) VH: EVQLQQSGPELVKPGASVKISCKTSGYIFTAYTMHWVRQSLGESLDWIGGIKPNNGLANYNQKFKGKATLTVDKSSSTAYMDLRSLTSEDSAVYYCARSEITTEFDYWGQGTALTVSS VL: DIVLTQSPASLAVSLGQRATISCRASESVDSYANSFMHWYQQKPGQPPKLLIYRASNLESGIPARFSGSGSRTDFTLTINPVEADDVATYYCQQSKEDPLTFGSGTKLEMKR | 66% | 57% | 74% |
| [224G11][MUP9H chim] (antibody, human IgG1, V domains shown) VH: EVQLQQSGPELVKPGASVKISCKTSGYIFTAYTMHWVRQSLGESLDWIGGIKPNNGLANYNQKFKGKATLTVDKSSSTAYMDLRSLTSEDSAVYYCARSEITTEFDYWGQGTALTVSS VL: DIVLTQSPASLAVSLGQRATISCRASESVDSYANSFMHWYQQKPGQPPKLLIYRASNLESGIPARFSGSGSRTDFTLTINPVEADDVATYYCQQSKEDPLTFGSGTKLEMKR |  | 78% |  |
| [224G11]chim (antibody, human IgG1, V domains shown) VH: EVQLQQSGPELVKPGASVKISCKTSGYIFTAYTMHWVRQSLGESLDWIGGIKPNNGLANYNQKFKGKATLTVDKSSSTAYMDLRSLTSEDSAVYYCARSEITTEFDYWGQGTALTVSS VL: DIVLTQSPASLAVSLGQRATISCRASESVDSYANSFMHWYQQKPGQPPKLLIYRASNLESGIPARFSGSGSRTDFTLTINPVEADDVATYYCQQSKEDPLTFGSGTKLEMKR | 19% |  | 33% |
| [224G11][MMCH chim] (antibody, human IgG1, V domains shown) VH: EVQLQQSGPELVKPGASVKISCKTSGYIFTAYTMHWVRQSLGESLDWIGGIKPNNGLANYNQKFKGKATLTVDKSSSTAYMDLRSLTSEDSAVYYCARSEITTEFDYWGQGTALTVSS VL: DIVLTQSPASLAVSLGQRATISCRASESVDSYANSFMHWYQQKPGQPPKLLIYRASNLESGIPARFSGSGSRTDFTLTINPVEADDVATYYCQQSKEDPLTFGSGTKLEMKR |  | 84% |  |
| [224G11][MH chim] (antibody, human IgG1, V domains shown) VH: EVQLQQSGPELVKPGASVKISCKTSGYIFTAYTMHWVRQSLGESLDWIGGIKPNNGLANYNQKFKGKATLTVDKSSSTAYMDLRSLTSEDSAVYYCARSEITTEFDYWGQGTALTVSS VL: DIVLTQSPASLAVSLGQRATISCRASESVDSYANSFMHWYQQKPGQPPKLLIYRASNLESGIPARFSGSGSRTDFTLTINPVEADDVATYYCQQSKEDPLTFGSGTKLEMKR |  | 79% |  |
| [224G11][Hz1] (antibody, V domains shown) VH: QVQLVQSGAEVKKPGASVKVSCKASGYIFTAYTMHWVRQAPGQGLEWMGWIKPNNGLANYAQKFQGRVTMTRDTSISTAYMELSRLRSDDTAVYYCARSEITTEFDYWGQGTLVTVSS VL: DIVLTQSPDSLAVSLGERATINCKSSESVDSYANSFMHWYQQKPGQPPKLLIYRASTRESGVPDRFSGSGSRTDFTLTISSLQAEDVAVYYCQQSKEDPLTFGGGTKVEIKR | ~46% |  |  |
| [224G11][TH7 Hz3] (antibody, V domains shown) VH: QVQLVQSGAEVKKPGASVKVSCKASGYIFTAYTMHWVRQAPGQGLEWMGWIKPNNGLANYAQKFQGRVTMTRDTSISTAYMELSRLRSDDTAVYYCARSEITTEFDYWGQGTLVTVSS VL: DIVMTQSPDSLAVSLGERATINCKSSESVDSYANSFLHWYQQKPGQPPKLLIYRASTRESGVPDRFSGSGSGTDFTLTISSLQAEDVAVYYCQQSKEDPLTFGGGTKVEIKR |  |  | 76% |
| [224G11][Hz3] (antibody, V domains shown) VH: QVQLVQSGAEVKKPGASVKVSCKASGYIFTAYTMHWVRQAPGQGLEWMGWIKPNNGLANYAQKFQGRVTMTRDTSISTAYMELSRLRSDDTAVYYCARSEITTEFDYWGQGTLVTVSS VL: DIVMTQSPDSLAVSLGERATINCKSSESVDSYANSFLHWYQQKPGQPPKLLIYRASTRESGVPDRFSGSGSGTDFTLTISSLQAEDVAVYYCQQSKEDPLTFGGGTKVEIKR | ~35% |  |  |
| [224G11][TH7 Hz1] (antibody, V domains shown) VH: QVQLVQSGAEVKKPGASVKVSCKASGYIFTAYTMHWVRQAPGQGLEWMGWIKPNNGLANYAQKFQGRVTMTRDTSISTAYMELSRLRSDDTAVYYCARSEITTEFDYWGQGTLVTVSS VL: DIVLTQSPDSLAVSLGERATINCKSSESVDSYANSFMHWYQQKPGQPPKLLIYRASTRESGVPDRFSGSGSRTDFTLTISSLQAEDVAVYYCQQSKEDPLTFGGGTKVEIKR |  |  | 67% |
| [224G11][Hz2] (antibody, V domains shown) VH: QVQLVQSGAEVKKPGASVKVSCKASGYIFTAYTMHWVRQAPGQGLEWMGWIKPNNGLANYAQKFQGRVTMTRDTSISTAYMELSRLRSDDTAVYYCARSEITTEFDYWGQGTLVTVSS VL: DIVMTQSPDSLAVSLGERATINCKSSESVDSYANSFMHWYQQKPGQPPKLLIYRASTRESGVPDRFSGSGSGTDFTLTISSLQAEDVAVYYCQQSKEDPLTFGGGTKVEIKR | ~30% |  |  |
| [224G11][TH7 chim] (antibody) heavy: not shown light: DIVLTQSPASLAVSLGQRATISCRASESVDSYANSFMHWYQQKPGQPPKLLIYRASNLESGIPARFSGSGSRTDFTLTINPVEADDVATYYCQQSKEDPLTFGSGTKLEMKRTVAAPSVFIFPPSDEQLKSGTASVVCLLNNFYPREAKVQWKVDNALQSGNSQESVTEQDSKDSTYSLSSTLTLSKADYEKHKVYACEVTHQGLSSPVTKSFNRGEC |  | 93% | 81% |
